Results reported in patent publication US20080207488A1, “Method for Detecting Peptides Comprising a Cross-B Structure” (priority 2005, published 2008).
“Also recorded” adds a separate entry of the source.

Assays:
[1] = Congo red fluorescence; type: physicochemical; details: marketed biopharmaceutical within expiry limits, five μL tested
Protocol: (§1) Background signals from buffer, buffer with Congo red and protein/peptide solution without Congo red were subtracted from corresponding measurements with protein solution incubated with Congo red. Fluorescence was measured in triplicate on a Hitachi F-4500 fluorescence spectrophotometer (Ltd., Tokyo, Japan).
Formulated protein therapeutics were obtained from the local hospital pharmacy and were used as supplied by the manufacturers. […] Lyophilized therapeutics were dissolved according to the manufacturers recommendations. […] Other protein therapeutics were only kept at 4° C., and assayed for the presence of cross-β structure conformation at shown time points. Enhancement in fluorescence of ThT and Congo red was measured with all formulated protein therapeutics. For this purpose, proteins were diluted to the indicated concentrations. […] Zinc-insulin was diluted tenfold in the activation assay, GH was diluted to a final concentration of 500 μg ml^−1. Activation of factor XII and prekallikrein by the therapeutics was tested in the chromogenic factor XII assay (see above). […] After coating, plates were blocked with Blocking Reagent (Roche Diagnostics, Almere, The Netherlands).
Protein therapeutics were obtained from the local hospital pharmacy and analyzed within the expiry limits as stated by the manufacturers.

[2] = Stability testing of biopharmaceuticals under denaturing conditions (ThT fluorescence, tPA activation); type: physicochemical; details: ThT at 25 μg/mL, tPA activation at 100 μg/mL
Protocol: To mimic accelerated stability testing several therapeutics were exposed to denaturing conditions and assayed for amyloid-like properties before and after treatment by tPA activation assay at 100 μg/mL protein and ThT fluorescence enhancement assay at 25 μg/mL protein. For this purpose, 5 mg/mL Glucagon (Glucagen; Novo Nordisk Farma B.V., Alphen aan de Rijn, The Netherlands) was incubated at 37° C. in 0.01 M HCl for 48 hours. One mg/mL Etanercept (Enbrel; Wyeth Pharmaceuticals B.V., Hoofddorp, The Netherlands) in 67 mM sodium phosphate buffer, 100 mM NaCl pH 7.0 was gradually heated from 30° C. to 85° C. over a period of 12 minutes and afterwards cooled to 4° C. for 5 minutes, this treatment was repeated 4 times. Abciximab (Reopro; Centocor B.V., Leiden, The Netherlands) and Infliximab (Remicade; Schering-Plough B.V., Utrecht, The Netherlands) were incubated at 65° C. for 16 and 72 hours, respectively.

[3] = test system: human tissue-type plasminogen activator finger EGF (tPA F-EGF) fragment; assay: ELISA, binding of tPA F-EGF to coated (mis)folded proteins; details: coated protein, FIG. 7A, I; listed as BSA-AGE
human tissue-type plasminogen activator finger EGF (tPA F-EGF) fragment, sequence (P00750 39-120 limits assumed): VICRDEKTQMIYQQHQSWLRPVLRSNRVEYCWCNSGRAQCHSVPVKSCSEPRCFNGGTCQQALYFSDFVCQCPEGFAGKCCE
Protocol: The plates were blocked using Blocking reagent (Roche 1112589). A dilution series of the protein of interest was applied to the coated proteins and wells were subsequently washed using TBS-T (50 mM Tris pH 7.3, 150 mM NaCl and 0.1% Tween20). Bound protein is detected by the FLAG-tag using 1:3000 anti-FLAG-HRP (Sigma A-8592) in PBS-T, or by 1:1000 Ni-NTA-HRP (Qiagen 34530) in PBS-T. The HRP reaction Is performed using the TMB substrate (Biosource 4501103 or Tebu Bio 101TMB100-500), stopped using 10% H2SO4 and absorbance was measured at 450 nm.

[4] = test system: platelets; assay: Platelet aggregation assay; type: cell-based, human; details: 512-fold diluted plasma spiked with 250 μg/ml BSA-AGE, tenfold diluted
Protocol: In a next series of experiments, diluted plasma was enriched with a 250 μg/ml BSA-AGE spike and subsequently added to tPA F-biotin-Streptavidin-Sepharose. […] Results are compared to platelet activating properties of the spiked plasma before depletion of BSA-AGE.
Freshly drawn human aspirin free blood was mixed gently with citrate buffer to avoid coagulation. Blood was spinned for 15′ at 150*g at 20° C. and supernatant was collected; platelet rich plasma (PRP) with an adjusted final platelet number of 200,000 platelets/μl. Platelets were kept at 37° C. for at least 30′, before use in the assays, to ensure that they were in the resting state. For the aggregometric assays, 270 μl platelet solution was added to a glass tube and prewarmed to 37° C. A stirring magnet was added and rotation was set to 900 rpm, and the apparatus (Whole-blood aggregometer, Chrono-log, Havertown, Pa., USA) was blanked. A final volume of 30 μl of tester solution was added, containing the agonist of interest (buffer, control, diluted plasma with BSA-AGE, before and after contacting tPA F-biotin-Streptavidin-Sepharose), prediluted in HEPES-Tyrode buffer pH 7.2. Aggregation was followed in time by measuring the absorbance of the solution, that will decrease in time upon platelet aggregation. […] Aggregation was recorded for 15′ and expressed as the percentage of the transmitted light (0-100%).

[5] = ThT fluorescence of LPS-protein mixtures; type: physicochemical; details: for ThT fluorescence enhancement vs protein in buffer only: 1 mg ml^−1 protein
Protocol: as §1, with “Fluorescence of ThT-protein/peptide adducts was measured as follows. […] Fluorescence was measured at 485 nm upon excitation at 435 nm. Background” for “Background”, “ThT” for “Congo red”, “ThT. […]” for “Congo red.”
Subsequently, the ability to enhance ThT fluorescence was determined with 40× diluted solution, as described above. […]

Substance: Abciximab: abciximab, an inhibitor of blood platelet aggregation (ReoPro, Centocor)
- Fluorescence (a.u. +/− SD) CR [1]: 25 +/− 1 a.u.
- amyloid-like properties after exposure to harsh denaturing conditions (low pH, heat) [2]: amyloid-like properties are adopted

Substance: albumin-AGE: advanced glycation end-product modified bovine serum albumin
- binding of tPA F-EGF [3]: High binding affinities; also recorded: high affinity binding
- platelet aggregation [4]: Platelets readily aggregate

Substance: lysozyme: chicken egg-white lysozyme
- ThT fluorescence enhancement ([5]; 200 μg ml^−1 LPS (FIG. 4D, E)): approximately 5 times
- ThT fluorescence enhancement ([5]; 400 μg ml^−1 LPS (FIG. 4D, E)): ~11 times
- ThT fluorescence enhancement ([5]; 600 μg ml^−1 LPS (FIG. 4D, E)): ~18 times
- ThT fluorescence enhancement ([5]; 1 mg ml^−1 protein exposed to 600 μg ml^−1 LPS (FIG. 4C)): approximately 10 times
- ThT fluorescence enhancement vs protein in buffer only ([5]; 10 μg ml^−1 LPS (FIG. 4B)): 1.1 times
- ThT fluorescence enhancement vs protein in buffer only ([5]; 25 μg ml^−1 LPS (FIG. 4B)): 1.3 times
- ThT fluorescence enhancement vs protein in buffer only ([5]; 100 μg ml^−1 LPS (FIG. 4B)): 1.6 times
- ThT fluorescence enhancement vs protein in buffer only ([5]; 200 μg ml^−1 LPS (FIG. 4B)): 2.3 times
- ThT fluorescence enhancement vs protein in buffer only ([5]; 600 μg ml^−1 LPS (FIG. 4B)): 5.7 times
- ThT fluorescence enhancement vs protein in buffer only ([5]; 1200 μg ml^−1 LPS (FIG. 4B)): 13.1 times
